Our source for the binding result and Kd values is patent publication US20250320278A1 (LA JOLLA INSTITUTE FOR IMMUNOLOGY, published 2025).

For assay [1], the target named is T1, SARS-CoV-2 N protein oligomerization domain (SARS-CoV-2, UniProt P0DTC9 247-364).
T1 construct: also called N olig. domain; OD
Briefly: Octet, KD (nM) heat map.

Assay [2] addresses T2, SARS-CoV-2 N protein, full-length (SARS-CoV-2, UniProt P0DTC9 1-419).
T2 construct: mature; also called SARS-CoV-2 nucleoprotein
As to the kind of experiment: Octet (BLI) kinetics. For orientation: In BLI a coated tip is dipped into the sample, and binding shifts an interference pattern.

Assay [3] has as its target T3, SARS-CoV-2 N protein RNA-binding domain (SARS-CoV-2, UniProt P0DTC9 44-180). Briefly: Octet (BLI) kinetics.
Assay [4] concerns the target T3, SARS-CoV-2 N protein RNA-binding domain. As to the kind of experiment: Octet, KD (nM) heat map.

Positions count from the first letter of the chain named.

B1: NP3-A11 (antibody, V domains shown)
VH: EVQLQESGPELKKPGETVKISCKVSGYTFTNYGMNWVKQAPGKGLKWMGWINTYTGEPKYGDDFKGRFALSLETSAGTAYLRINNLKNEDTATYFCARSHGNYENHFDYWGQGTTLTVSS
VL: DIQMTQSPSSLSVSVGETVTITCRASENIYSSLAWYQQKQGKSPQLLVYTATDLADGVPSRFSGSGSGSQYSLRINSLQSEDFGSYYCQHFWGFPWTFGGGTKLEIK
Take B1: in assay [1], the binding result is “no binding”. In addition, the Kd (as a rule, the concentration at which binding is half-saturated) amounted to 0.71 nM in assay [2] and 1.01 nM in assay [3].

B2: NP3-B9 (antibody, V domains shown)
VH: EVQLQQSGPELKKPGETVKISCKTSGYTFTNCGMHWVKQAPGKGLKWMGWINTYTGEPTYADDFKGRFAFSLETSVNTAYLQINNLKSEDTASYFCARRDDVYYVAGFDYWGQGTTLTVSS
VL: B1 VL with S9A, S32N, Y49N, T50G, S69T, R74K, H90L, F94T
Take B2: in assay [1], the binding result is “no binding”. Besides, the dissociation constant Kd came to 0.38 nM in assay [2] and 0.47 nM in assay [3].

B3: NP3-C5 (antibody, V domains shown)
VH: QIQLVQSGPELKTPGETVKISCKASGYTFTNCGMHWVKQAPGKGLKWMGWINTYTGEPIYADDFKRRFAFSLETSASTAYLQINNLNNEDTASYFCARRDDVYYVAGFDYWGQGTTVTVFS
VL: B1 VL with S9A, S32N, T50G, S69T, R74K, F94T, I106L
In the case of B3, in assay [1], the binding result is “no binding”. Moreover, the Kd in assay [2] was 0.73 nM; in assay [3], 0.62 nM.

B4: NP3-F4 (antibody, V domains shown)
VH: EVQLVESGPELKKPGETVKIPCKTSGYTFTNYGMNWVKQAPGKGLKWMGWINTNTGEPTYAEDFKGRFAFSLETSASTAYLQISNLKNEDTATFFCARGSIYDGYYEGLYYWGQGTTLTVSS
VL: B1 VL with Q3K, S32N, Y49S, T50A, D53N, G57N, S69T, R74K, W96R
Regarding B4, the binding result in assay [1] is reported as “no binding”. In addition, the figures for the Kd in assay [2] and in assay [3] were 2.84 nM and 5.57 nM, respectively.

B5: NP3-H9 (antibody, V domains shown)
VH: QIQLVQSGPELKKPGETVKISCKASGYTFTDYPIHWVKQAPGKGLKWMGWINAETGEPTYADDFKGRFVVSLETSASTAYLQINNLKNEDTATFFCARHYRYDEAWFVYWGQGTLVTVSA
VL: B1 VL with I2V, M4I, S32N, T50A, S69T, Q70H, R74K, Y86F, F94T
On to B5, for which the binding result in assay [1] is recorded as “no binding”. The Kd amounted to 5.2 nM in assay [2] and 3.16 nM in assay [3].

B6: NP3-E3 (antibody, V domains shown)
VH: QIQLVQSGPDLKKPGETVKISCKASGYTFTDYSMHWVKQVPGKGLKWMGWINTETDKPTYADDFKGRFAFSLETSASTAYSQINNLKNEDTATYFCARHYKYDEAWSPYWGQGTLVTVSA
VL: B1 VL with Q3V, M4L, S9A, S32N, K42Q, T50A, S69T, R74K, S85N, F94T
For the molecule B6, the binding result in assay [1] is “no binding”. In assay [3], this molecule showed a Kd of 1.36 nM.

B7: NP3-H12 (antibody, V domains shown)
VH: QIQLVQSGPELKKPGETVKISCKASGYMFTNYGMNWVKQAPGKGLKWMGWINTYTGEPTYADDFKGRFAFSLDISGSTAYLQINNLKNEDMATYFCARTREIWGNVDFPYWGQGTLVTVSA
VL: DILMTQAAPSLSVSVGETVTITCRASENIYSDLAWYQHKEGKSPQLLVYAATDLADGVPSRFSGSGSGTQYSLKINSLQSEDFGNYYCQHFWGTPWTFGGGTKLEIK
For B7, the binding result in assay [1] is recorded as “no binding”. The dissociation constant Kd amounted to 0.72 nM in assay [2] and 1.89 nM in assay [3].

B8: NP3-F7 (antibody, V domains shown)
VH: EVQLQQSGAELVRPGSSVKISCKASGYAFSSYWMNWVKQRPGQGLEWIGQIYPGNGDTYYNGKFMGKATLTADKFSSTAYMQLSGLTSEDSAVYFCARRPLFYAMDYWGQGTSVTVSS
VL: DIVLTQSPGSLAVSLGQRATISCKASQSVDYDGDSYMNWYQQKPGQPPKLLIYAASNLESGIPVRFSGSGSGTDFTLNIHPVEEEDAATYYCQQSNEDPWTFGGGTKLELK
B8: in assay [4], the binding result was “no binding”.

B9: NP3-G5 (antibody, V domains shown)
VH: EVQLVESGPELKKPGEPVRISCKASGYTFTDYGMNWVKQAPGKGLKWMGWINTYTGEPTYADDFKGRFAFSLETSASTAFLQITNLKNEDTATYFCARAPLLRSYFDYWGQGTSVTVSS
VL: DIVMTQSHKFMSTSVGDRISITCKASQDVSTAVVWYQQKPGQSLKLLIYSASYRYTGVPDRFTGSGSGTDFTFTISSVQAEDLAIYYCQQYYSTPFTFGSGTKLEIK
Turning to B9, the binding result in assay [1] was “no binding”.

B10: NP3-E2 (antibody, V domains shown)
VH: EVQLQQSGPEVVRPGVSVKISCKGSGYTFTDYALHWVKQSHTKSLEWIGVISTYSGTTNYNQNFKGKATMAVDKSSSTAYMELARLTSEDSAIYYCASGGNYGLDYWGQGTSVTVSS
VL: DIVMTQSHKFMSTSVGDRVSITCKANQDVGSAVAWYQEKPGQSPKLLIYWTSTRHTGVPDRFTGNGSGTDFTLTISNVQSEDLVDYFCQQYSRYPLTFGSGTKLELK
Turning to B10, the binding result in assay [1] is recorded as “no binding”. Besides, binding in assay [2] was characterised by a dissociation constant (Kd) of 0.57 nM.

B11: NP3-D5 (antibody, V domains shown)
VH: DVQLQESGPELVRPGVSVKISCKGSGYTFTDYVMHWVKQSHAKSLEWIGVISTYSGNTNYNQKFKGKATMTVDKFSNTAYMELARLTSEDSAIYYCTRGTGDFDYWGQGTTLTVSS
VL: DIVMTQSHKFMSTSVGDRVSITCKASQDVGTAVAWYQQKPGQSPKLLIYWASTRHTGVPDRFTGSGSGTDFTLTISNVQSEDLADYFCHQYSSYPYTFGGGTKLEIK
Turning to B11, the binding result in assay [1] is “no binding”.

B12: NP3-E11 (antibody, V domains shown)
VH: B11 VH with D1E, E6Q, F75S, A79V
VL: B11 VL with T31S, A51T, R61H, S76N
Take B12: the binding result in assay [1] is “no binding”. Also, the dissociation constant (Kd) in assay [2] was found to be 1.23 nM; in assay [3], 0.57 nM.

B13: NP3-E4 (antibody, V domains shown)
VH: EVQLVESGPGLVAPSQSLSITCTVSGFSLTSYGVSWVRQPPGKGLEWLGVIWGDGSTNYHSALISRLSINKDNSKSQVFLRLNSLQTDDTATYYCAKEDDGYLFYFDYWGQGTTLTVSS
VL: DIKMTQSPSSLSASLGDRVTISCSASQDISDYLNWYQQKPDGTVKLLIYYTSSLHSGVPSRFSGSGSGTDYSLTISNLEPEDIATYYCQQYSKLPYTFGGGTKLEIK
Regarding B13, the binding result in assay [1] is reported as “no binding”. The equilibrium dissociation constant (Kd) in assay [2] was 0.71 nM; in assay [3], 3.46 nM.

B14: NP3-B1 (antibody, V domains shown)
VH: QVQLQQSGPELVKPGTSVTVYCKASGYTFTTYNIYWVKQSHGKSLEWIGYIDPYNGGTSYNQKFKGKATLTVDKSSSAAYMHLNSLTSEDSAVYYCALPWDYWGQGTTVTVSS
VL: not shown
As for B14, the binding result in assay [1] is reported as “no binding”. This molecule gave a Kd in assay [2] of 2.01 nM.

B15: NP3-D1 (antibody, V domains shown)
VH: B14 VH with Q1D, Q6E, V12A, T16A, T19K, Y21S, T31S, A78T, T108S
VL: not shown
Take B15: the binding result in assay [1] is on record as “no binding”. Also, the Kd in assay [2] was 5.63 nM; in assay [3], 0.0015 nM.

B16: NP3-B2 (antibody, V domains shown)
VH: QIQLVQSGGGLVKPGGSLKLSCAASGFTFSDYYMSWVRQTPEKRLEWVATISDGGSYTYYPDSVKGRFTISRDNAKNNLYLHMSSLKSEDTAMYYCARGSTYGNPLDYWGQGTTLTVSS
VL: DIQMTQTTSSLSASLGDRVTINCSASQGISNYLNWYQQKPDGTVKLLIYFTSSLHSGFPSRFSGSGSGTDFSLTISNLEPEDIATYYCQQYSKLPFTFGSGTKLEIK
For the molecule B16, the binding result in assay [1] is reported as “no binding”. The results for the Kd in assay [2] and in assay [3] were 1.51 nM and 0.9 nM, respectively.

B17: NP3-F10 (antibody, V domains shown)
VH: EVQLQQSGAELVEPGAPVKLSCKAFGYTFTSYWMNWVKQRPGRGLEWIGRIDPSDSETHYNQNFKDKAALTVDRSSSTAYIHLSSLTSEDSAVYYCAREVTTATKGVFSWLAYWGQGTLVTVSA
VL: B13 VL with K3Q, S7T, P8T, V44I, V58A, Y96W, I106L
As for B17, the binding result in assay [1] is recorded as “no binding”. Moreover, the Kd is 2.53 nM in assay [2] and 5.6 nM in assay [3].

B18: NP3-G6 (antibody, V domains shown)
VH: B16 VH with Q1E, I2V, Q6E, T114S, L115V
VL: B16 VL with T7S, T8P, S9A
B18: the binding result in assay [1] is “no binding”. The Kd in assay [2] was 0.43 nM; in assay [3] it was 0.88 nM.

B19: NP3-E5 (antibody, V domains shown)
VH: B16 VH with Q1E, I2V, Q6E, S56N, H82Q, Y108H
VL: B16 VL with F50Y, S53I, F58V, F71Y
For the molecule B19, the binding result in assay [1] is given as “no binding”. Also, the Kd in assay [2] came out at 0.8 nM; in assay [3] it was 1.38 nM.

B20: NP3-B4 (antibody, V domains shown)
VH: EVQLVESGGGLVQPGGSVKLSCLASGFTFSDYYMSWVRQSPEKGLEWVAEIRLESDNYATHYAESVKGKFTISRDDSKSRLYLKMNSLRGEDTGIYYCAFDVYYGGAMDYWGQGTTVTVSS
VL: DIQMTQSPSIMSASPGEKVTMTCSASSSVSYMHWYQQKSSTSPKLWIYDTSELASGVPGRFSGSRSGNSYSLTISSMEAEDVATYYCFQGSGYPLTFGGGTKLELK
With B20, in assay [4], the binding result was “no binding”.
